B1: CXXC motif containing zinc binding protein (Homo sapiens), Q9NWV4 (parent)
chain: MGKIALQLKATLENITNLRPVGEDFRWYLKMKCGNCGEISDKWQYIRLMDSVALKGGRGSASMVQKCKLCARENSIEILSSTIKPYNAEDNENFKTIVEFECRGLEPVDFQPQAGFAAEGVESGTAFSDINLQEKDWTDYDEKAQESVGIYEVTHQFVKC
partner: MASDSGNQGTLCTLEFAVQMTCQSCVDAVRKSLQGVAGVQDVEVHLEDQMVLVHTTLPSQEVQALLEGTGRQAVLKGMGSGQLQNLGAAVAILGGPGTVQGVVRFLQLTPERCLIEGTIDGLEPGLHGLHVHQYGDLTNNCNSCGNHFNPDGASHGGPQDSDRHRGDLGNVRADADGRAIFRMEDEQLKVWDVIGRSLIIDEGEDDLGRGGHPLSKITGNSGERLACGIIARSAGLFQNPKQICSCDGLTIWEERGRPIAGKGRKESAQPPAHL

Tests used:
ccs_human CCS, O14618 [1] = variants of: B1; conditions: with ccs_human CCS
ccs_human CCS, O14618 [2] = variants of: B1; conditions: with ccs_human CCS; remark: listed apart in the source

effect of a mutation on the interaction (ccs_human CCS, O14618 [1]) | effect of a mutation on the interaction (ccs_human CCS, O14618 [2]) | Variant
disrupting interaction strength | causing an interaction | MGKIALQLKATLENITNLRPVGEDFRWYLKMKCGNCGEISDKWQYIRLMDSVALKGGRGSASMVQKAKLAARENSIEILSSTIKPYNAEDNENFKTIVEFECRGLEPVDFQPQAGFAAEGVESGTAFSDINLQEKDWTDYDEKAQESVGIYEVTHQFVKC
with no effect | causing an interaction | MGKIALQLKATLENITNLRPVGEDFRWYLKMKAGNAGEISDKWQYIRLMDSVALKGGRGSASMVQKCKLCARENSIEILSSTIKPYNAEDNENFKTIVEFECRGLEPVDFQPQAGFAAEGVESGTAFSDINLQEKDWTDYDEKAQESVGIYEVTHQFVKC

— IntAct's records for PubMed 30260988
